Common to all, as to settings: […]) or PBS pH 8.0, 1 mM TCEP ([…]
In data set [1] the test system is T1, PaaR2 (Escherichia coli O157:H7 EDL933 (CP-933P cryptic prophage)), ORF:dc76e4f2.
T1 sequence: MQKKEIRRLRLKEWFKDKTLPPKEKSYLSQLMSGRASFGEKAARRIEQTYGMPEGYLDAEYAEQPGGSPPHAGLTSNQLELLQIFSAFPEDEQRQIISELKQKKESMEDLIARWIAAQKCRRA
Nature of the data set: EMSA.

Data set [2] has as its system T2, YdaS (Escherichia coli O157:H7 EDL933 (CP-933P cryptic prophage)), ORF:56fdd3d8.
T2 sequence: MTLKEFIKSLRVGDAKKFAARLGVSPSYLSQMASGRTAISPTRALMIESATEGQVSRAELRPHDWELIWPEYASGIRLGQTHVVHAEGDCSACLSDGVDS
The data set is described as follows: EMSA. A general note: In EMSA bound probe runs differently from free probe, usually more slowly.

Data set [3] has as its system T1, PaaR2 (Escherichia coli O157:H7 EDL933 (CP-933P cryptic prophage)), ORF:dc76e4f2. Nature of the data set: DNase I footprinting.
Data set [4] relates to T2, YdaS (Escherichia coli O157:H7 EDL933 (CP-933P cryptic prophage)), ORF:56fdd3d8. Nature of the data set: DNase I footprinting.
Data set [5] deals with PaaR2 (Escherichia coli O157:H7 EDL933 (CP-933P cryptic prophage)). The data set is described as follows: EMSA.
In data set [6] the test system is YdaS (Escherichia coli O157:H7 EDL933 (CP-933P cryptic prophage)). Nature of the data set: EMSA.

“ACCTTCCTCGGTTTAGTGTTTTTTTGCGAGTTTAGTGTTTAATAAACCATTAAGTCAAGTATTTGCTTGTTTAGTGATTACTAAAGATAATTACCAC (double strand)”: the binding in data set [1] and in data set [2] was greater than 1 µM throughout.
As to “GCTTTTGCGCAGAAATTTCGCGATATGGCAGGACAAGACGTAAAATTGACAGCAATTTTATTCATATAAAGAATGAATCGCAGTCAAGGTATTCATC (double strand) [random intergenic region (Neg)]”, the binding result in data set [1] and in data set [2] was “no binding” throughout.
With “TCTTTAAACCACTCCTTGAGACGTAAACGGCGAATTTCTTTTTTTTGCATGTGGTAATTATCTTTAGTAATCACTAAACAAGCAAATACTTGACTTAATGGTTTATTAAACACTAAACTCGCAAAAAAACACTAAACCGAGGAAGGTATGACATTAAAAGAGTTTATTAAATCATTAAGGGTTGGTGAT (double strand) [footprint fragment, paaR2-ydaS promoter/operator region]”, the binding entry in data set [3] and in data set [4] was “binds” throughout.
As to “full-length promoter/operator region, paaR2-ydaS intergenic region (EMSA)”, the binding in data set [5] and in data set [6] was greater than 1 µM throughout.

The record behind these values is PMC8630535.
